We go through eight molecules from patent CN116507641A (XINSHI BIOPHARMACEUTICAL CO LTD, dated 2023).

Test [1] has as its target T1, 大鼠结合素-4 (rat Nectin-4) (rat, UniProt Q8R007 31-508 (mouse entry)).
T1 construct: Transiently expressed on 293T cells; also called NP_001102546.1
T1 chain: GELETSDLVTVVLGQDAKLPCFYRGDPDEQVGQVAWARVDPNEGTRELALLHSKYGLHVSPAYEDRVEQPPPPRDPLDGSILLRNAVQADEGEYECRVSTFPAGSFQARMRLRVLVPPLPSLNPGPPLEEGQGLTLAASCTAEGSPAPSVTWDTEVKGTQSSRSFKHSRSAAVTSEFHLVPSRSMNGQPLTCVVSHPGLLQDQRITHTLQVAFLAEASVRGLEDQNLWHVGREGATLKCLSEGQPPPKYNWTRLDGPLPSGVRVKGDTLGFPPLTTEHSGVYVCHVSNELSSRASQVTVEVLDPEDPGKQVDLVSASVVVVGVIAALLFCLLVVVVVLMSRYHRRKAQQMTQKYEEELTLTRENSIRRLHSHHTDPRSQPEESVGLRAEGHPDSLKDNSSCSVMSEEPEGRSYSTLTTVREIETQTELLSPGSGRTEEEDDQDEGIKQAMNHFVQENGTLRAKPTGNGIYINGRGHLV
Description: flow cytometry on transiently transfected 293T cells; + = EC50 25nM to 133nM.

Test [2] concerns the target T2, 食蟹猴结合素-4 (cynomolgus Nectin-4) (cynomolgus monkey, UniProt Q96NY8 32-510 (human entry)).
T2 construct: Transiently expressed on 293T cells; also called XP_005541277.1
T2 chain: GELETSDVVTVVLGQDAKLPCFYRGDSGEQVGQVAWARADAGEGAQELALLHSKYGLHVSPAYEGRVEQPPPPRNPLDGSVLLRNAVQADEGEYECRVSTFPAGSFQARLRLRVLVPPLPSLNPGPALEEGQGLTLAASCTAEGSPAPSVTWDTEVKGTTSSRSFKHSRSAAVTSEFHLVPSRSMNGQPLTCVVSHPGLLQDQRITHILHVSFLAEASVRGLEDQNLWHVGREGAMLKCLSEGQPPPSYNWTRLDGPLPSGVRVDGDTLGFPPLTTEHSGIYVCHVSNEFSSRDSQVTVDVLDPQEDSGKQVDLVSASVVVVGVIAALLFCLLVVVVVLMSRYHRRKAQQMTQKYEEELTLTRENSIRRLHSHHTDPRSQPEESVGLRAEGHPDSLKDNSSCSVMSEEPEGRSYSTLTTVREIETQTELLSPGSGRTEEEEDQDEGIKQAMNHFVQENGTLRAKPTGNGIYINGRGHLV
Description: flow cytometry on transiently transfected 293T cells; +++ = EC50 below 5nM. (A flow cytometer gives signals particle by particle.)

The target of test [3] is T1, 大鼠结合素-4 (rat Nectin-4). As to the kind of experiment: flow cytometry on transiently transfected 293T cells; ++ = EC50 5nM to 25nM.
The target in test [4] is T3, 小鼠结合素-4 (mouse Nectin-4) (mouse, UniProt Q8R007 31-508).
T3 construct: Transiently expressed on 293T cells; also called NP_082169.2
T3 sequence: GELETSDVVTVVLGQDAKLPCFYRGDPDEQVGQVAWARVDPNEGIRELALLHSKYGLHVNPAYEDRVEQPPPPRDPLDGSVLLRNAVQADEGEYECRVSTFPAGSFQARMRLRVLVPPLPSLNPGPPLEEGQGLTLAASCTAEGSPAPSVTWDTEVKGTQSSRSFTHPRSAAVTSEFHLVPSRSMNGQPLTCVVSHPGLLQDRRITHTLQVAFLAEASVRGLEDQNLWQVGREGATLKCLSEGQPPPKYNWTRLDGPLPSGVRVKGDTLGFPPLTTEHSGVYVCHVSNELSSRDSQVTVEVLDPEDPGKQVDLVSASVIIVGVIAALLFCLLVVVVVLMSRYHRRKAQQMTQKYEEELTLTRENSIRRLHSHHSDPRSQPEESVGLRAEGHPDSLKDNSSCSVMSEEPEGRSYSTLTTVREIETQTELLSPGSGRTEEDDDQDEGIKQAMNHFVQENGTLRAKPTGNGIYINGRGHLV
The test is described as above.

The target of test [5] is T3, 小鼠结合素-4 (mouse Nectin-4). Description: flow cytometry on transiently transfected 293T cells; + = EC50 25nM to 133nM.
For test [6], the target named is T1, 大鼠结合素-4 (rat Nectin-4). As to the kind of experiment: flow cytometry on transiently transfected 293T cells; +++ = EC50 below 5nM.
The target in test [7] is T4, 重组人结合素4-His蛋白 (recombinant human Nectin-4-His) (human, UniProt Q96NY8 32-349).
T4 construct: Analyte in SPR; also called 人重组结合素-4; not shown: His tag
T4 sequence: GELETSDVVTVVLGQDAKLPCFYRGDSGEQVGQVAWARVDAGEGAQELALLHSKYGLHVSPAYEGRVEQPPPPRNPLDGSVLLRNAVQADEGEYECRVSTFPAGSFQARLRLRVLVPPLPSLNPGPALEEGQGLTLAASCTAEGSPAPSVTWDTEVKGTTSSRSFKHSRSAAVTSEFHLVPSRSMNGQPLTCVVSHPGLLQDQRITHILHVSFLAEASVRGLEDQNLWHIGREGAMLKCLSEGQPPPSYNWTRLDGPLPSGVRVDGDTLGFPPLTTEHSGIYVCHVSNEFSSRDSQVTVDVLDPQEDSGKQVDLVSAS
Description: SPR (BIAcore 3000), antibody captured by anti-human IgG on CM5, Nectin-4-His as analyte, 1:1 binding with mass transfer.

Test [8] concerns the target T5, 人重组结合素-4蛋白 (recombinant human Nectin-4, extracellular domain) (human, UniProt Q96NY8 32-349).
T5 construct: Protein coated on the ELISA plate; May be the same protein as the Nectin-4-His used in SPR; also called 重组结合素-4(细胞外结构域); 人结合素-4蛋白
T5 sequence: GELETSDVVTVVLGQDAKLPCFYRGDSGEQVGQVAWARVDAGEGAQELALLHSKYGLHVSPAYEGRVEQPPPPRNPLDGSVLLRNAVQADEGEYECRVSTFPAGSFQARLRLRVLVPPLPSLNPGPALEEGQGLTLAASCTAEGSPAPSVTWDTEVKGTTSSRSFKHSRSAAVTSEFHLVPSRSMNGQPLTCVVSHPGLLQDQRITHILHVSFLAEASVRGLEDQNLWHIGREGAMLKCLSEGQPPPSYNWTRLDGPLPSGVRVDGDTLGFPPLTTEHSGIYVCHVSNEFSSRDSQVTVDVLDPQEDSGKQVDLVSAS
Description: ELISA, recombinant human Nectin-4 coated on plate. A general note: ELISA stands for enzyme-linked immunosorbent assay.

The target in test [9] is T6, 人结合素-2 (recombinant human Nectin-2; ACROBiosystems PV2-H52E2) (human, UniProt Q92692 32-360).
T6 construct: extracellular domain
T6 sequence (looked up): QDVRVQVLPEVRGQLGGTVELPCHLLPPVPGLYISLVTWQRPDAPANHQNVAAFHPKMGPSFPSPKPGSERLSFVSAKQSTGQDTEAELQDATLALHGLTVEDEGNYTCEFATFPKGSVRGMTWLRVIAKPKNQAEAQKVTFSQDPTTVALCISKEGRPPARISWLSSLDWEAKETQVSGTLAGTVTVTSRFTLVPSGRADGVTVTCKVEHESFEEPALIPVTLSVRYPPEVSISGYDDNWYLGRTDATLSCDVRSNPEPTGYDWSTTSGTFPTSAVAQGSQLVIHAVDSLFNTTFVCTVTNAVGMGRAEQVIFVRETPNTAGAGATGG
Description: ELISA or Gator binding assay.

In test [10] the target is T7, 人结合素-4变体 ΔV结构域 (human Nectin-4 lacking amino acids 32-147) (human, UniProt Q96NY8 148-510).
T7 construct: Transiently expressed on 293T cells; also called 缺少Ig样V型结构域的变体
T7 sequence: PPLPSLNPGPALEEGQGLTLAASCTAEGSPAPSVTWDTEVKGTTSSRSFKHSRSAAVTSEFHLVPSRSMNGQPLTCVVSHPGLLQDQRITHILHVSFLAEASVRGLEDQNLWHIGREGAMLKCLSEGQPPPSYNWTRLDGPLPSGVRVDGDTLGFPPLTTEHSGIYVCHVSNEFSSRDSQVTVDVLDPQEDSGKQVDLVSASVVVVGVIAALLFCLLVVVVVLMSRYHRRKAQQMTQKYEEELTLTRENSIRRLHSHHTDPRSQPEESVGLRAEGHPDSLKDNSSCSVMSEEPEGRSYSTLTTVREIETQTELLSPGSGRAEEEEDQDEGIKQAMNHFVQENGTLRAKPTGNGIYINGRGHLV
Description: flow cytometry on transiently transfected 293T cells.

Where only a bound is given, the exact number is not on record here.

B1: N4_mAb 4 (antibody, V domains shown)
VH: DVQLQESGPDLVKPSQSLSLTCTVTGYSITSAYNWHWIRQFPGNKLEWMGYIHYSGRTNYNPSLKSRISITRDTSKNQFFLQLNSLTTEDTATYYCARWITTATGWYLDVWGAGTTVTVSS
VL: not shown
In the case of B1, the EC50 – broadly, the concentration giving half of the maximal effect – is 25 to 133 nM in the test with 大鼠结合素-4 (rat Nectin-4) [1] and less than 5 nM in [2].

B2: N4_mAb 2 (antibody, V domains shown)
VH: QVQLKQSGPNLVQPSQSLSITCTVSGFSLTTYGAHWVRQSPGKGLEWLGVIWRGGSTDYNAAFMSRLSITKDNSKSQVFFKMNSLQADDTAIYYCAKIGYDGYAMDNWGQGTSVTVSS
VL: DFQVTQSPASLSASVGETVTITCRTSENIHNYLAWYQQKQGKSPQLLVYNAKTLADGVPSRFSGSGSGTQYSLKINSLQPEDFGTYYCQHFWSSPWTFGGGTKLEIK
As to B2, the results for the EC50 (in [2]; with 大鼠结合素-4 (rat Nectin-4) [3]; in the test with 小鼠结合素-4 (mouse Nectin-4) [4]) were less than 5 nM, 5 to 25 nM and 5 to 25 nM, respectively.

B3: N4_mAb 3 (antibody, V domains shown)
VH: EVQLQQSGAELVKPGASVKLSCTVSGFNIKDTYMHWVKQRPEQGLEWIGRIDPANGNTKYDPKFQGKATIIADKASNTAYLQLSSLTSEDAAVYYCAHYYGSSYFAMDCWGQGTSVTVSS
VL: DIVMTQSHKFMSTSVGDRVSITCKASQDVSTAVAWYQQKPGQSPKLLIYWASTRHTGVPDRFTGSGSGTDYTLTISSVQTEDLALYYCQQHYSTPLTFGAGTKLELK
Consider B3, for which the EC50 with 大鼠结合素-4 (rat Nectin-4) [1] was 25 to 133 nM; in test [2], less than 5 nM.

B4: N4_mAb 5 (antibody, V domains shown)
VH: EVQLQQSGPDLVKPGASVKISCKASGYSFTGHYMHWVKQSHGKSLEWIGRVNPNNGGSSYNQKFKDKAILTVDKSSTTAYMELRSLTSEDSAVYYCARDPLGGSYGFAYWGQGTLVTVSA
VL: DIVLTQSPASLAVSLGQRATISCRASQSVTTSSYSYMHWYQQKPGQPPKLLIKYASNLESGVPARFSGSGSGTDFTLNIHPVEEEDTATYYCQHSWEIPYTFGGGTKLEMK
As to B4, the EC50 in the test with 小鼠结合素-4 (mouse Nectin-4) [5] is 25 to 133 nM; in [2], less than 5 nM; with 大鼠结合素-4 (rat Nectin-4) [6] it was less than 5 nM.

B5: N4_mAb 1 (antibody, V domains shown)
VH: QVQLKQSGPGLVQPSQSLSITCTVSGFSLTNYGVNWVRQPPGKGLEWLGVIWSGGSTDYNAAFISRLSISKDISKSQVFFKMNSLQADDTAKYYCAREGYDGYAMDYWGQGTSVTVSS
VL: DIQMTQSPASLSVSVGETVTITCRASENIFSSLAWYQQKQGKSPQLLVYGATNLADGVPSRFSGSGSGTQYSLKINSLQSEDFGTYWCQHFWGNPWTFGGGTKLEIK
Molecule B5 returned an EC50 in [2] of less than 5 nM.

B6: N4_mAb 6 (antibody, V domains shown)
VH: QVQLQQSGPELVKPGASVRISCKASGYTFTTYYIHWVKQRPGQGLEWIGWIYPGNVNTKYTENFKDKATLTADKSSSTAYMQLSSLTSEDSAVYFCARGLYYFDFWGQGTTLTVSS
VL: SIVMTQTPKFLLVSAGDRVTITCKASQSVNNDVAWYQQKPGQSPKLLIYYASNRDTGVPDRFTGSGFGTDFTFTISSVQAEDLAVYFCQQDYSSPYTFGGGTKLEIK
notes: Murine variable regions
B6: the Kd (usually the equilibrium constant for the complex coming apart) in test [7] is 0.392 nM. In addition, the EC50 in [8] was 0.03 nM; in test [2], less than 5 nM; in the test with 大鼠结合素-4 (rat Nectin-4) [6], less than 5 nM; with 小鼠结合素-4 (mouse Nectin-4) [4] it was 5 to 25 nM. Moreover, the binding result is listed as “no binding” in test [9] and “no binding (tested: 最高测试的抗体浓度(133nM))” in [10].

B7: N4_mAb 8 (antibody, V domains shown)
VH: QVQLQQSGPVLVKPGASVRISCKASGYTFTSYYIHWVKQRPGQGLEWIGWIYPGNVNTKYNENFRDKATLTADKSSSTSYMQLSSLTSEDSAVYFCARGIYYFDYWGQGTTLTVSS
VL: IIVMTQTPKFLLVSAGDRVTITCKASQSVNNDVAWYQEKPGQSPKLLIYYASNRDTGVPDRFTGSGYGTDFTFTISTVQAEDLAVYFCHQDYSSPFTFGSGTKLEIK
notes: Murine variable regions
Consider B7, for which the Kd in [7] amounted to 0.375 nM. Further, the EC50 in [8] is 0.14 nM; in test [2], less than 5 nM; with 大鼠结合素-4 (rat Nectin-4) [6] it was less than 5 nM; with 小鼠结合素-4 (mouse Nectin-4) [4], 5 to 25 nM. In addition, the binding result is given as “no binding” in [9] and “no binding (tested: 最高测试的抗体浓度(133nM))” in test [10].

B8: N4_mAb 7 (antibody, V domains shown)
VH: QVQLQQSGPELVKPGASVKMSCKASGYTFTTYYIHWVKQRPGQGLEWIGWIYPGNAGIKSNEKFKGKTTLTADKSSSTAYMLLSSLTSEDSAIYFCARGVYFFDYWGQGTTLTVSS
VL: SIVMTQTPKFLLVSAGDRVTITCKASQSVNNDVSWFQQKPGQSPKLLIYYASNRYTGVPDRFSGSGYGTDFTFTITTVQAEDLAVYFCQQDYSSPYTFGGGTKLEIK
notes: Murine variable regions
As to B8, in test [7], the Kd was found to be 0.39 nM. For the same molecule, the EC50 in test [8] is 0.04 nM; in test [2] it was less than 5 nM; with 大鼠结合素-4 (rat Nectin-4) [6], less than 5 nM; in the test with 小鼠结合素-4 (mouse Nectin-4) [4] it was 5 to 25 nM. For the same molecule, the binding result in test [9] is recorded as “no binding”; in test [10], “no binding (tested: 最高测试的抗体浓度(133nM))”.
